{"source": "paper PMC7302350", "biological_target": "DOT1L (1-416), recombinant (Homo sapiens) (UniProt Q8TEK3)", "sequence (Q8TEK3 1-416)": "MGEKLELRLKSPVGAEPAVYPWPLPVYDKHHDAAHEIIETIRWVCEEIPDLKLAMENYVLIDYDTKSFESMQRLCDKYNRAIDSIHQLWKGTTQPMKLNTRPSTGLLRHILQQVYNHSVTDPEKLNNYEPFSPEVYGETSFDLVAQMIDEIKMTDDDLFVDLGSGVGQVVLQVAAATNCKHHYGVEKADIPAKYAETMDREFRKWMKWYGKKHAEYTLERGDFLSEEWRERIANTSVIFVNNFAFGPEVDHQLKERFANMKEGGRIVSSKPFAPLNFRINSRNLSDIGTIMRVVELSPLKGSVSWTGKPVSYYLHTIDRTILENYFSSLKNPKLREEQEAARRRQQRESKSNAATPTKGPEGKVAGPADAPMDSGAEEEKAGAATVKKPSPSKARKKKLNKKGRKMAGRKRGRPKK", "experiment": "EMSA", "details": "EMSA: 10 mM HEPES pH 7.3, 20 mM KCl, 1 mM MgCl2, 1 mM DTT, 5% glycerol, 100 ug/mL tRNA, room temperature 30 min; pull-down: Pierce Magnetic RNA-Protein …"}
{"sequence": "GGGACAUUCGAGCAGCUGCUCUGGAGAAACAGCAGGAUCUACGGAAGUUUGUACCCACCGCCUCGCCUGCAGCCUCGGGAGUCUCAACCCAAGCCGGCCCGGCCUUGUAGCCCAGAGCAGCAAAGCCACAGCAGGCAACGCGAGCUAACGCGGGUCGCGCGGAGGUCGGGAGCCCAGGCGGCGGAGGCGGCGGCGGCGCAGUUAUUCCCGGGUGACUCUGGGGACUCGUGCAGAUGGGGGACGCCUCCGGCCACGCACUUGGAGCCA [LAMP5-AS1 503-764]", "values": [{"measurement": "binding", "result": "binds"}]}
